Data on 13 molecules can be found in article PMC5419745 (eLife, 2017).

Like-named read-outs stand apart in the source and are kept apart here.

Targets include Hsa ETS-2 PNT (human) (UniProt P15036); Hsa p53TAD (human) (UniProt P04637); Fish/Tetrapod NCOA3 CID; 1R CID; 1R CID G1080S; 1R CID S1058N; 1R CID S1078Q.
Assay in all cases: ITC; iTC200, 25°C, 20 mM sodium phosphate, pH 7.4, 150 mM NaCl; both partners dialysed against the same buffer
(In general: ITC needs no label: the signal is the heat of the interaction.)

The target in test [1] is Hsa NCOA2 CID (TIF2) (human).
The target of test [2] is Hsa NCOA1 CID (SRC1) (human).
For test [3], the target named is Hsa NCOA3 CID (ACTR) (human) (UniProt Q9Y6Q9).
Test [4] deals with Hsa NCOA1 CID (SRC1) (human). This is another data set of the same source.
Target sequence in this assay (Q15788 1040-1081): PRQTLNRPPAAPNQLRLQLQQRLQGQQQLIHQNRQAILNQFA
For test [5], the target named is Hsa NCOA2 CID (TIF2) (human). The source holds these as a separate data set.
In test [6] the target is T1, Hsa ETS-2 PNT (human), P15036.
T1 chain: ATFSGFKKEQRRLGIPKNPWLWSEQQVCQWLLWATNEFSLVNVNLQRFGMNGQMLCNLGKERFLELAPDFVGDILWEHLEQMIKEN

Another test addresses T2, Hsa NCOA3 CID (ACTR) (human, UniProt Q9Y6Q9-3 1040-1081).
T2 construct: numbers count on: splice variant NCOA3-002 (ENST00000371997); pRSET vector; also called human NCOA3 CID; ACTR CID
T2 chain (looked up): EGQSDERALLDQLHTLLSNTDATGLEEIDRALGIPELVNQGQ
The note with it: both partners purified.

The target of another test is T3, Hsa p53TAD (human, UniProt P04637 1-61).
T3 construct: source: expressed and purified as previously described (Dogan et al., 2015)
T3 sequence (P04637 1-61): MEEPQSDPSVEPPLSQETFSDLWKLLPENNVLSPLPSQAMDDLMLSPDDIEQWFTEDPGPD
As to conditions: both partners purified.

Another test has as its target T4, Hsa ETS-2 PNT (human, UniProt P15036 85-170).
T4 construct: pointed (PNT) domain of human ETS-2; also called globular pointed (PNT) domain from human ETS-2; PNT domain of ETS-2; source: expressed and purified as previously described (Dogan et al., 2015)
T4 sequence (looked up): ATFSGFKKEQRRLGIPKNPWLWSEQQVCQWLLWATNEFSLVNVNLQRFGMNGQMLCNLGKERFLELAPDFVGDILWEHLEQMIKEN
As to conditions: both partners purified.

Sequence of Hsa p53TAD (human) (P04637 1-61): as the sequence (P04637 1-61) above

In general, Kd refers to the concentration at which binding is half-saturated. Read a high Kd as a looser complex. The molecule “Hsa CREBBP NCBD A2106Q/Y2108Q (from UniProt Q92793 2062-2109) (domain or fragment)” had a Kd in test [1] of 220 nM.

“Hsa CREBBP NCBD Y2108Q (from UniProt Q92793 2062-2109) (domain or fragment)” registered a dissociation constant (Kd) in test [1] of 210 nM.

For Dmel NCBD (domain or fragment), the Kd amounted to 5200 nM in test [2], 22000 nM in test [1] and 37000 nM in [3].

Consider Hsa p300 NCBD (domain or fragment), for which the equilibrium dissociation constant (Kd) worked out at 1500 nM with Hsa ETS-2 PNT (human); 180 nM in test [2]; 71 nM in [1]; 110 nM in test [3]; 9200 nM in the test with Hsa p53TAD (human).

For the molecule “Hsa CREBBP NCBD (from UniProt Q92793 2062-2109) (domain or fragment)”, the Kd in test [2] stood at 330 nM; in test [1], 130 nM.

In turn, “Hsa CREBBP NCBD A2106Q (from UniProt Q92793 2062-2109) (domain or fragment)” returned an equilibrium dissociation constant (Kd) in [1] of 100 nM.

On to Pma NCBD (domain or fragment), for which the Kd with Hsa ETS-2 PNT (human) is 1000 nM; in [2] it was 190 nM; in test [1] it was 44 nM; in [3] it was 230 nM.

For ITPGALQDLLRTLKSPSSPQQQQQVLNILKSNPHLMAAFIKQRTAKYQ (domain or fragment, modifications not checked) [Dre CREBBP NCBD], the dissociation constant Kd in the test with Fish/Tetrapod NCOA3 CID was found to be 570 nM; in test [4], 290 nM; in test [5], 230 nM.

Consider IPPNALQDLLRTLKSPSSPQQQQQVLNILKSNPQLMAAFIKQRTAKYQ (domain or fragment, modifications not checked) [Fish/Tetrapod CREBBP NCBD], for which the dissociation constant Kd turned out to be 410 nM with Fish/Tetrapod NCOA3 CID and 1300 nM in test [6].

As to IPPSALQDLLRTLRSPSSPQQQQQVLNILKSNPQLMAAFIKQRAARYQ (domain or fragment, modifications not checked) [1R/2R NCBD N2065S K2107R], the Kd in the test with 1R CID was found to be 170 nM; with 1R CID G1080S it was 130 nM.

Turning to IPPNALQDLLRTLRSPSSPQQQQQVLNILKSNPQLMAAFIKQRAAKYQ (domain or fragment, modifications not checked) [1R/2R NCBD], the Kd with 1R CID stood at 200 nM; with 1R CID G1080S, 240 nM; with 1R CID S1058N, 220 nM; in the test with 1R CID S1078Q it was 250 nM; in test [6], 850 nM; in test [4] it was 110 nM. The Kd in [5] was 45 nM.

For IPPSALQDLLRTLRSPSSPQQQQQVLNILKSNPQLMAAFIKQRAAKYQ (domain or fragment, modifications not checked) [1R/2R NCBD N2065S], the dissociation constant Kd in the test with 1R CID amounted to 130 nM.

B1: Hsa CREBBP NCBD (domain or fragment, human)
chain: GSISPSALQDLLRTLKSPSSPQQQQQVLNILKSNPQLMAAFIKQRTAKYV
notes: Gly-Ser left at the N-terminus from the expression construct; NCBD domain of human CREBBP; pRSET vector; also called human CREBBP NCBD
B1: the equilibrium dissociation constant (Kd) in the test with Hsa NCOA3 CID (ACTR) was 350 nM; in the test with Hsa p53TAD it was 84000 nM; with Hsa ETS-2 PNT it was 760 nM; with 1R CID, 380 nM.
